Test results reported in patent US8138307.

What was measured:
[1] = biological target: GAL4 activation domain-hsyt11AB fusion encoded by pGAD10-hsyt11AB (human synaptotagmin 11, domains C2A and C2B) (human) (UniProt Q9BT88); assay: yeast two-hybrid liquid assay (β-galactosidase, n=3)
[2] = biological target: GFP-syt11 (GFP fusion of full-length human synaptotagmin XI) (human) [GFP: P42212]; assay: co-immunoprecipitation with anti-HA agarose, anti-GFP blot

Sequence of GAL4 activation domain-hsyt11AB fusion encoded by pGAD10-hsyt11AB (human synaptotagmin 11, domains C2A and C2B) (human) (Q9BT88 157-431 G231V): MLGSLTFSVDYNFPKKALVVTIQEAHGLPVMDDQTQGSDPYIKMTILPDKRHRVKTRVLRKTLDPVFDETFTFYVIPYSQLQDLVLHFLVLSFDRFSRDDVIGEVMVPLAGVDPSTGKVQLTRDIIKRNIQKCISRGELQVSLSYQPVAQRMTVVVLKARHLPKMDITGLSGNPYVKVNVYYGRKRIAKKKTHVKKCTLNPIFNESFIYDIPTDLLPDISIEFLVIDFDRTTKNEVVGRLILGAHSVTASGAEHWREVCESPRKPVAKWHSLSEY

fold β-galactosidase activity over pGBT9 vector control [1] | fold less interaction compared with parkinC418R [2] | Substance
20 fold |  | GAL4 binding domain-parkin(1-465) fusion encoded by pGBT9-parkin(1-465) (from UniProt P04386 1-147; O60260 1-465)
 | 2.5 fold less | HA-tagged missense mutated parkin C289G (from UniProt O60260 1-465) (enzyme)
